# FireProtDB (doi:10.1021/bi801431x)
# Values joined by “and” are separate entries in the source; they are usually repeats but may differ in a detail not shown here. Equal values may be shown once.
# B1: Aspartate aminotransferase wild type, P00509 (protein)
# chain: MFENITAAPADPILGLADLFRADERPGKINLGIGVYKDETGKTPVLTSVKKAEQYLLENETTKNYLGIDGIPEFGRCTQELLFGKGSALINDKRARTAQTPGGTGALRVAADFLAKNTSVKRVWVSNPSWPNHKSVFNSAGLEVREYAYYDAENHTLDFDALINSLNEAQAGDVVLFHGCCHNPTGIDPTLEQWQTLAQLSVEKGWLPLFDFAYQGFARGLEEDAEGLRAFAAMHKELIVASSYSKNFGLYNERVGACTLVAADSETVDRAFSQMKAAIRANYSNPPAHGASVVATILSNDALRAIWEQELTDMRQRIQRMRQLFVNTLQEKGANRDFSFIIKQNGMFSFSGLTKEQVLRLREEFGVYAVASGRVNVAGMTPDNMAPLCEAIVAVL
# Settings: Escherichia coli (strain K12); pH 7.5; 25 °C; Urea; Fluorescence; Potassium phosphate 20 mM; reversible: Yes; whole UniProt chain shown
protein,measurement,value
B1,denaturant midpoint (higher = more stable),3.89 M and 5.02 M
